Test results reported in patent US10456446B2, “Use of human small leucine zipper protein in osteogenesis procedure” (Korea University Research and Business Foundation, priority 2013, dated 2019).

Columns and labels:
sLZIP TG mouse embryos = experiment: Cartilage development, alcian blue staining of sLZIP TG mouse embryos on E12.5; type: in vivo; conditions: E12.5, compared with wild type
From the text: In order to generate human sLZIP transgenic (TG) mice, sLZIP genes were cloned into a pCMV-flag expression vector. The sLZIP TG mice were generated by Macrogen, Inc (Seoul, Korea). Transgenic founders were mated with wild type C57BL/6 mice to produce F1 heterozygotes. F1-F4 generations were genetically screened for transgenes at an age of 2 weeks old. The following two primers were used to amplify genomic DNA in order to identify wild type and TG mice: 5′-GGACGATGATGACAAGGACT-3′ (SEQ ID NO: 25) and 5′-GTCAGAGGAGTACATGCTGCT-3′(SEQ ID NO: 26).
(§1) When a bone is initially developed during an embryo, cartilage is formed and hardened to a bone according to a so-called ossification (or osteogenesis) process. In order to examine whether sLZIP-mediated osteogenesis is associated with cartilage development, an effect of sLZIP in chondrocyte differentiation was examined. For this purpose, ATDC5 cells were temporarily transfected with sLZIP at different contents (0.1 μg to 0.5 μg). Total RNA was extracted from the cells, and an mRNA expression level of a chondrocyte marker was measured using RT-PCR analysis (FIG. 8A) and real-time PCR (FIG. 8B). GAPDH was used as an internal control group. An experiment was repeated three times. […] Total RNA was extracted from the mature osteoclasts, and an mRNA expression level of an osteoclast marker was measured using real-time PCR (FIG. 8D). […]

[1] = system: BMMs (bone marrow macrophages)-derived mature osteoclasts; experiment: Osteoclast marker mRNA in osteoclasts derived from bone marrow macrophages of sLZIP TG mice, real-time PCR; type: cell-based, mouse; conditions: RANKL 100 ng/mL and M-CSF 30 ng/mL, wild type versus sLZIP TG mice
Protocol: Real-time PCR was performed in LightCycler 480 using a SYBR Green Master Mix (Roche, Mannheim, Germany). β-actin was used as an internal control group. A target gene expression level rate with respect to β-actin was calculated using CT method. A Ct value is defined as a PCR cycle number at which a fluorescence signal reaches a fixed target threshold. Experiments were technically repeated three times for each experiment.
as §1

PPARγ2 and HDAC3 = target: T1, PPARγ2 and HDAC3 (Homo sapiens, UniProt P37231); experiment: GST pull-down, effect on interaction between PPARγ2 and HDAC3; type: binding; conditions: in the presence of ligand (10 nM RZD, 24 hours)
T1 construct: expressed in transfected cells; host or cells: 293T
T1 sequence (P37231 1-505): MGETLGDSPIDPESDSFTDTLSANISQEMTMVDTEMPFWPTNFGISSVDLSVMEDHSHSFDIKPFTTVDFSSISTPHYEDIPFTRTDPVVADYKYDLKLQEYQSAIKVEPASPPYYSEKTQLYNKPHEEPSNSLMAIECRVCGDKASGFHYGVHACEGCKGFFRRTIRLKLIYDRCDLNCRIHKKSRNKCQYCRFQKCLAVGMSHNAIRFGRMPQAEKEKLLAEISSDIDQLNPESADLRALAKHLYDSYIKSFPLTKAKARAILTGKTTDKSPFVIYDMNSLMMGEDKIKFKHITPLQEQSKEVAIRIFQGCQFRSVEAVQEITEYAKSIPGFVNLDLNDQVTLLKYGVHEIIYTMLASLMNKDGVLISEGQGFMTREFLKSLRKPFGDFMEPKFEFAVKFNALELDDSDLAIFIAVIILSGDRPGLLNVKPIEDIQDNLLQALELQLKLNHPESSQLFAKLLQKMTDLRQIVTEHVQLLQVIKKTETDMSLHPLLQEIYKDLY
Protocol: Therefore, in order to understand a regulation mechanism of sLZIP in the PPARγ2 transcriptional activity by binding to the FABP4 promoter region, an effect of sLZIP on the interaction between PPARγ2 and HDAC3 was examined. For this purpose, 293T cells were transfected with GST-HDAC3, Myc-PPARγ2 and Flag-sLZIP, and were treated or not treated with 10 nM of RZD for 24 hours. Cell lysates were subjected to GST pull-down analysis using a glutathione 4B bead, and a protein complex was analyzed in SDS-PAGE, and then immunoblotted with anti-GST, anti-Myc and anti-Flag antibodies (FIG. 6A). GST-HDAC3, GST-PPARγ2, Myc-PPARγ2, Flag-sLZIP and Ha-UB were expressed in the 293T cells, and the cells were treated with 10 nM of RZD for 24 hours. Cell lysates were subjected to GST pull-down analysis (FIG. 6B). GST-PPARγ2 and Flag-sLZIP were expressed in the 293T cells and treated with 10 nM of RZD for 24 hours. Cell lysates were subjected to GST pull-down analysis, and a protein complex was analyzed in SDS-PAGE, and then immunoblotted with anti-PGC1α, anti-GST and anti-Flag antibodies (FIG. 6C).

B1: sLZIP: human small leucine-zipper protein, isoform of LZIP, 354 amino acids, no transmembrane domain, GenBank FJ263669, SEQ ID NO: 1 (protein, listed as Homo sapiens)
chain: MELELDAGDQDLLAFLLEESGDLGTAPDEAVRAPLDWALPLSEVPSDWEVDDLLCSLLSPPASLNILSSSNPCLVHHDHTYSLPRETVSMDLESESCRKEGTQMTPQHMEELAEQEIARLVLTDEEKSLLEKEGLILPETLPLTKTEEQILKRVRRKIRNKRSAQESRRKKKVYVGGLESRVLKYTAQNMELQNKVQLLEEQNLSLLDQLRKLQAMVIEISNKTSSSSMYSSDTRGSLPAEHGVLSRQLRALPSEDPYQLELPALQSEVPKDSTHQWLDGSDCVLQAPGNTSCLLHYMPQAPSAEPPLEWPFPDLFSEPLCRGPILPLQANLTRKGGWLPTGSPSVILQDRYSG
In the case of B1, the “cartilage development of leg and tail” value (sLZIP TG mouse embryos) is reported as “no difference”, the “osteoclast markers (Oscar, Ctsk, TARP)” value [1] is reported as “no difference” and the “interaction between PPARγ2 and HDAC3” value (PPARγ2 and HDAC3) is reported as “enhanced interaction between PPARγ2 and HDAC3”.
